Target: GltPh-XL2 (cysteine-less GltPh with L152C and G351C) (UniProt O59010)
Test: cryo-EM structure

GltPh-XL2 (cysteine-less GltPh with L152C and G351C) (from UniProt O59010 1-417) (natural protein)
stoichiometry N: 3

— PMC7954978
